Assay: label from the status in PepcDB records

Row | Sequence | protein production
1 | MWTTNIIKTPRGKFEYFLKGEGPPLCVTHLYSEYNDNGNTFANPFTDHYSVYLVNLKGCGNSDSAKNDSEYSMTETIKDLEAIREALYINKWGFAGHSAGGMLALVYATEAQESLTKIIVGGAAASKEYASHKDSIYCSKNVKFNRIVSIMNALNDDSTVQEERKALSREWALMSFYSEEKLEEALKLPNSGKTVGNRLNYFRQVEYKDYDVRQKLKFVKIPSFIYCGKHDVQCPYIFSCEIANLIPNATLTKFEESNHNPFVEEIDKFNQFVNDTL | not failed
2 | MLKTTISPIFSSFTGKPKCSSKLFFRAFSKVVLQDTPPSARRNASTNLTTLHKGPPTSAYVHLPFCRKRCHYCDFPILALGMSSSSARPSNVYEEGKEDDPRITNYVNLLVREIKATRTDFDTNPNLETVFFGGGTPSLVPPKLVSLILETLSLNFGLSPDAEISMEMDPGTFDGQKLKDLMKLGVNRVSLGVQAFQDELLKACGRAHGVSQVYEAIEFVKECGVENWSMDLISSLPHQTLEMWEESLRLAIESQPNHVSVYDLQVEQGTKFGNLYTPGQSPLPSETQSAEFYKTASSMLRGAGYEHYEVSSYSRDGFKCKHNLIYWKNKPFYAFGLGSASYVGGLRFSRPRRLKEYTNYVADLENGAANWCGNGDVDLKDVATDILMLSFRTSKGLELKEFGEAFGSEVVKSICKVYEPYVESGHIVCLDDMRSEVMIDEFKTLVANDEVKIEDHVRYLRLKDPDGFLLSNELISLSFGVVAP | failed
3 | MTGQELRQLLLDKWGYSYDVQFRRTQGKIFLQVMWKYLEQASFPMNETEYQEHLDSVANYLHALGGAVQVKTFITQTKERPRLGKAVSIPLDLGERASEWIILEHHHHHH | not failed
4 | MSFPLIFERSRKGRRGLKLVKAVPKAEDLIPKEHLREVPPRLPEVDELTLVRHYTGLSRRQVGVDTTFYPLGSCTMKYNPKLHEEAARLFADLHPYQDPRTAQGALRLMWELGEYLKALTGMDAITLEPAAGAHGELTGILIIRAYHEDRGEGRTRRVVLVPDSAHGSNPATASMAGYQVREIPSGPEGEVDLEALKRELGPHVAALMLTNPNTLGLFERRILEISRLCKEAGVQLYYDGANLNAIMGWARPGDMGFDVVHLNLHKTFTVPHGGGGPGSGPVGVKAHLAPYLPVPLVERGEEGFYLDFDRPKSIGRVRSFYGNFLALVRAWAYIRTLGLEGLKKAAALAVLNARYLKELLKEKGYRVPYDGPSMHEFVAQPPEGFRALDLAKGLLELGFHPPTVYFPLIVKEALMVEPTETEAKETLEAFAEAMGALLKKPKEWLENAPYSTPVRRLDELRANKHPKLTYFDEG | not failed
5 | MVVYPNEEAENGSLRFVDFVNKTFALLGNSPIKKFSLRHEPRLYCVDAYLRWIFTAMEQERGLLELHLYADRYYYPVGIERELFTSNTLVKLTLSGRYDFQVETVFLPALKSLSLSSSFEIGFDKYCNLLDGFPALEELYIREAVSELSNALLSSGTFVKCASIKRLVVFTDCPKFKEDEDHQEPCFIAPSLVYLDYSSYLSENYDLIDLNSLVEARLNLRLLESFNNYGSSDNDGDVYGWDFNVPFDYYGDVTNLVAGITNITTLHLSPDSLEVFHFRCKSIPVFNNLLLNLSIESNKRNGWQVMPLLIRSCPNLHTLVIKGFVHRVTSKCGDACACIPKKQRKIGKKEEISEYGGSFQELEQMRHFLGKLERLETVKVGVHAENNNNNEFLRANLLTLPRLSSKCNNIQFI | failed
6 | MDHIRTHNTHHARKSADHLCVITDGGVSAIDRVSQRNIRVRLGAEHHDQLFCQAHGLKRLLPGKSIDLHKDKKWRTLICSITKNPETSMTPDAARKNSPEMKPRKKKKRQFRQLFARSLQRLARTRSGSAEFSGPLRSVAILAQEKLGDCVLLTPLVRNLRQAFPDLEIHLITFSRASANFFMNDPQVTAVHLVKKQPRRYFREVLSRKFDLLFNTKDHPSTWFLLQSALIRARFKVGHNNPFHEGLYDRLLDTEFHAHMAVKNCALLPLLGVTADTEACRPSLPAMPVSNEIWQLLSRLAEDIRPIGVNISAGEPNRLWTEAKWRALLERFPGERFVVLSGPDDLDAKRRLEEQCPNAVASPPTRNLYEASCIVAKLRLLVTPDTSMVHVASATGTPVAGLYREAPQDISRFGPYAIPYEIVISPTGEVSGIKPESVADAVRRLMARAIGREA | failed
7 | NATTLPEALKLMQYIGDAIGTIRDPQELFRTVTDKLRLLFAFDSAVIITIDRERREASVFFEMLRFELPEQLRHQTRSIAGTWLEGHLDDRTVTVASIARDIPSFGADGAPLLWTLHELGMRQIVLSPLRSGGRVIGFLSFVSAEEKLWSDGDKSLLSGVSSSIAIAVSNALAYEELRQREAETSMQLAINNALFTI | not failed
8 | TRRIMQLVFTDVTKHKEYEETLRKEQQVVQDILDFQSSIVLVAGSDEGVLSANRSALDFFGFRDVKEFRMHYRCICEAFIDREGFLKNRHEAWLHEALLANQTGRDSKAIIKDRHSGEERIFVVKVGRYPRDSHKFIVSLTD | failed
9 | MSLSKILIAGCGDLGLELARRLTAQGHEVTGLRRSAQPMPAGVQTLIADVTRPDTLASIVHLRPEILVYCVAASEYSDEHYRLSYVEGLRNTLSALEGAPLQHVFFVSSTGVYGQEVEEWLDEDTPPIAKDFSGKRMLEAEALLAAYSSTILRFSGIYGPGRLRMIRQAQTPEQWPARNAWTNRIHRDDGAAFIAYLIQQRSHAVPERLYIVTDNQPLPVHDLLRWLADRQGIAYPAGATPPVQGNKKLSNARLLASGYQLIYPDYVSGYGALLAAMREGHHHHHH | not failed
10 | MPQPTSQQRASVASSQSTQGAVGWSAATGWVVLFVAVALVVWFVSLDMRHLVGPDEGRYAEISREMFASGDWVTIRYNALKYFEKPPFHMWVTVVGYELFGLGEWQARLAVALSGLLGIGVSMMAARRWFGARAAAFTGLALLAAPMWSVAAHFNTLDMTLAGVMSCVLAFMLMGQHPDASVAARRGWMVACWAAMGVAILTKGLVGIALPGLVLVVYTLVTRDWGLWRRLHLALGVVVMLVITVPWFYLVSVRNPEFPNFFFIHEHWQRYTSNIHSRSGSVFYFLPLVIGGFLPWAGIFPKLWTAMRAPVEGTQARFRPALMAGIWAIAIFVFFSISRSKLPGYIVPVIPALGILAGVALDRLSPRSWGKQLIGMAIVAACGLLASPVVATLNANHIPNSFYRAYAVWVAVAFVVMLLGIAVARLLLRRGVLPSVAVYAMGMYLGFTVALLGHETVGRPASGADIAPQIAQKLTPEMPLYGVQMLDHTLPFYLRHPLMMVGQADELTFGATVEPQRVVPDVDSFTKLWKNGQPAMAVMSPDTYLALAPTLSMYVVARDWRRVVVANVASLAGPQ | failed
11 | MTPLVSRLSRLWAIMRKPRAAVGSGHRKQAASQEGRQKHAKNNSQAKPSACDGLARQPEEVVLQASVSSYHLFRDVAEVTAFRGSLLSWYDQEKRDLPWRRRAEDEMDLDRRAYAVWVSEVMLQQTQVATVINYYTGWMQKWPTLQDLASASLEEVNQLWAGLGYYSRGRRLQEGARKVVEELGGHMPRTAETLQQLLPGVGRYTAGAIASIAFGQATGVVDGNVARVLCRVRAIGADPSSTLVSQQLWGLAQQLVDPARPGDFNQAAMELGATVCTPQRPLCSQCPVESLCRARQRVEQEQLLASGSLSGSPDVEECAPNTGQCHLCLPPSEPWDQTLGVVNFPRKASRKPPREESSATCVLEQPGALGAQILLVQRPNSGLLAGLWEFPSVTWEPSEQLQRKALLQELQRWAGPLPATHLRHLGEVVHTFSHIKLTYQVYGLALEGQTPVTTVPPGARWLTQEEFHTAAVSTAMKKVFRVYQGQQPGTCMGSKRSQVSSPCSRKKPRMGQQVLDNFFRSHISTDAHSLNSAAQ | failed
12 | MDRLTEMEAFANVVDQGGFTDAAKKMGISKSAVSKHVSSLEARLGARLLNRTTRRVSPTEIGLAYYDRARRVLNDAGEADALVTSMQSAPSGLLRISVATDFGVNHLSPVLSDFLAEFPDITVNMVLNNRYVELISEGFDMAVRIGELEDSTLRARKLTETTKRMIASPKYFEKYGHPQKIDDLNEHKLLHYSSQASGNVWKLTAPSGEKRQVRTAGWLSVNDGQSLLNAAISGLGIAYLPCYLFAEAMEQGLVEDAMPSLPDEVQGIYAVYPPGRFTQPKVRAFIDFLVHSFADKGPMNW | not failed
13 | MSDLQSLQPKLLWQWFDQICAIPHPSYKEEQLAQFIINWAKTKGFFAERDEVGNVLIRKPATVGMENRKPVVLQAHLDMVPQANEGTNHNFDQDPILPYIDGDWVKAKGTTLGADNGIGMASALAVLESNDIAHPELEVLLTMTEERGMEGAIGLRPNWLRSEILINTDTEENGEIYIGCAGGENADLELPIEYQVNNFEHCYQVVLKGLRGGHSGVDIHTGRANAIKVLLRFLAELQQNQPHFDFTLANIRGGSIRNAIPRESVATLVFNGDITVLQSAVQKFADVIKAELALTEPNLIFTLEKVEKPQQVFSSQCTKNIIHCLNVLPNGVVRNSDVIENVVETSLSIGVLKTEDNFVRSTMLVRSLIESGKSYVASLLKSLASLAQGNINLSGDYPGWEPQSHSDILDLTKTIYAQVLGTDPEIKVIHAGLECGLLKKIYPTIDMVSIGPTIRNAHSPDEKVHIPAVETYWKVLTGILAHIPSR | not failed
14 | MAVPSFFTLMNLLCGFMALTQVADAAFVLACWLIVLAGFFDLLDGVMARLTGADSPFGVQLDSLSDIVSFGVAPSFLLYGYVLDTFNPLGMIVAALPALCGAVRLARYNMTADESDKEGFEGLPIPGQAIAVVALILAAENSAWDGRFALDSLRVVLPVVIVLSGLMVSSIRFDAIPMPSLEAVRTHPSKIAAYGLAGLLIVGLQERGLLIVLTAYLLHGVGRALYKLMRALVAPVPDERLGS | failed
15 | SQNSKTPFPEYFWSWFETYKESSVSERTKLTYKNTFNVLKKHLGGIPIEEMDRRLYRKFIAEFGKDHAKSTVSKFNSLYHACVKDAMYDGDMTKDFIAGTDIVYNRKKTRK | failed
16 | LLEIKRKGAKRGSQHYSDRTCARCQESLGRLSPKTNTCRGCNHLVCRDCRIQESNGTWRCKVC | not failed
17 | MDNDKYLKGTTTVGVVCTDGIVLASEQRATMGHFIASKTAKKVYQIDDLVGMTTAGSVGDAQQLVRLVSVESQLYKMRRNESMTIKGIATLMSNFLNANRYYPMMVQLLIGGVDKNGPAIYSLDPMGGSIEETRISATGSGSPMAYGVLEDQYREDIAVKEGLDLAIRAIHNATKRDSASGENIDVVVITKEAFKRLDPEEVKSRRALLN | failed
18 | PQAMIIDVVADVVCPWCYLGWRRLKSAIALRPDLKAQLIWRPYQLDPTLPEDGVDRKAYMAQKFKDPEKLKAVHTALVEGGAEEGIVFNFEAIALSPNTNAAHRLIRWALTAGVQDHVVEALFKAYFEQGLDIGDPIVLGDIAEAAGMERLVVLQLLSEGADKEAVAREHAMAVQGGVTGVPFAIFAGKVAVVGAESPERIAQAIDQALAA | failed
19 | AAQGFVFNLDNPIFKDRRVREALSLLWDFDWINRRVMRNFYVREQSYFPKSDMAATELPTPAELKILEPLRGQVPDEVFTTVYQPPKTDGSGYIRDKQLQALKLLAEAGWHPKNNKLVNAAGEPMVFSFLDGQGGFDRLILPFKRTLAQIGITLDFLRIDSAQYINRLNARDYDMIVVSLPKNGNPIISPGRELYNLYGSQSATEVGSSNAMVLRNPAVDTLIDGLVSANTRNDMVLYARALDRVLQWGYYMIPNYYSK | failed
20 | MKKIAVFADVQNLYYTVRQAYGCHFNYAALWADISKRGEIVHAFAYAIDRGDSKQQQFQQILRNLGFTVRLKPYIQRSDGSAKGEWDVGITIDIMDFAPQVDEVVLASGDGDFDMLLDRVISKHGVEAVAYGVPGLTANSLIRAASRYVPIEGALLLK | not failed
21 | MLSKILKTSLCFIFMTCWVTTAQAFKGPLETPASMKLHATTSQLTAVTRNGNRLAAVGARGLVLLSDDNGKKWQQVAVPVSSNLVSVQFPVPDQGWAVGHDGVVLHSGDGGRTWSKQLDGNQVAKIMLKHYEKLAAEGDAAASKILPDIQRILQEGADKPFMDVWFLDEKEGFVAGAFNLIMHTTDAGKTWVPLFERTDNPKNLHIYALKGVGKEVYLAGEMGMLRRWDRASQRFVTIASPYKGTFFGLLAKDTTILAFGLRGNAFRSSDRGNTWRKLNTNTTAGLTGGTFLDDGRAVLVSQDGQVLVIDVGSETFVPAKVSSPMAFSSVAPAGKNGIVAVGSRGVITESLK | failed

Reference: a protein production outcome set (Wang et al. 2014)
